In patent publication US5558864A, “Humanized and chimeric anti-epidermal growth factor receptor monoclonal antibodies” (Merck Patent Gesellschaft Mit Beschrankter Haftung, dated 1996):
Entries after “also recorded” stand apart in the source; their conditions may differ. Each block holds one molecule with its values, some of them ahead of it.

Legend:
EGFR protein [1] = test: ELISA for antigen binding to EGFR; conditions: transfected cell supernatants, detection with anti-human IgG; VH versions co-transfected with RVL a425, ranked: highest > followed by > then followed by > low > never detectable
Protocol: Human IgG present in COS cell supernatants was detected by ELISA: In the ELISA assay for human IgG, 96-well plates were coated with goat anti-human IgG (whole molecule) and human IgG in the samples that bound to the plates was detected using alkaline phosphatase-conjugated goat anti-human IgG (gamma-chain specific). Purchasable purified human IgG was used as a standard. Binding to the antigen recognized by MAb 425 was determined in a second ELISA. Plates were coated with an EGFR protein preparation (obtainable, for example, according to Rodeck et al., 1980) and antibodies binding to EGFR were detected using either an anti-human IgG (gamma-chain specific) peroxidase conjugate (for chimeric and reshaped human antibodies) or an anti-mouse IgG (whole molecule) peroxidase conjugate (for the mouse MAb 425 antibody) (both conjugates supplied by Sigma). Purified murine MAb 425 was used as a standard.

EGFR protein [2] = test: Competition binding assay with biotinylated murine MAb 425 (cell supernatants); design: species or system human; conditions: unpurified COS cell supernatants; relative levels of binding, not accurate affinity
Protocol: Murine MAb 425 was biotinylated using a correspondingly purchasable kit. ELISA plates were coated with an optimal dilution of the EGFR protein. Dilutions of the COS cell supernatants, in a volume of 50 μl, were mixed with 50 μl of the biotinylated murine MAb 425 (estimated by ELISA to be 1.75 μg/ml). Each COS cell supernatant was tested in duplicate. Plates were incubated at room temperature, overnight. Bound biotinylated murine MAb 425 was detected by the addition of a purchasable streptavidin horseradish peroxidase complex. A control with no competitor present allowed a value of percentage of inhibition or blocking to be calculated for each COS cell supernatant as follows: […]

[3] = system: EGFR solubilized from A431 membranes; test: Competitive binding of purified antibodies against biotin-labelled MAb 425 (Example 11); design: species or system human; conditions: competition with biotin-labelled MAb 425, inhibition curves FIG. 10
Protocol: Biotin-labelled MAb 425 was Used to compete with unlabelled MAb 425 or derivates for binding to EGFR. Biotin-labelling occurred according to standard methods. EGFR was solubilized from A431 membranes by standard methods. A431 cells were commercially purchased. Detection was done after incubation with POD-conjugated streptavidin and substrate.

[4] = system: EGF-receptor positive membranes (A431); test: Competition of 125I-labelled EGF and antibodies for EGF-receptor, SPA (Example 12); assay type: binding, human; conditions: purified antibodies, 125I-EGF, FIG. 11
Protocol: Different probes of purified murine, chimeric and reshaped MAbs 425 were tested for their potency to compete with EGF regarding their binding to EGFR. The test was performed by competing ^125 I-labelled EGF (Amersham Corp., GB) and various antibodies for binding to EGF-receptor positive membranes (A431). The test system is based on SPA technology (Amersham).

[5] = system: human epidermal growth factor receptor (EGFR); conditions: cited from earlier work
[6] = system: epidermoid and colorectal carcinoma-derived cell lines; conditions: in vitro; cited from earlier work
[7] = molecular target: T1, EGFR protein preparation (epidermal growth factor receptor) (human, UniProt P00533); test: competition ELISA on EGFR-coated plates, competitor biotinylated murine MAb 425 (FIG. 7, Panel B)
[8] = molecular target: T1, EGFR protein preparation (epidermal …); test: antigen-binding ELISA on EGFR protein, supernatant of co-transfected cells
[9] = molecular target: T1, EGFR protein preparation (epidermal …); test: antigen-binding ELISA on EGFR protein, COS supernatants, with RVL a425 (FIG. 6)
[10] = molecular target: T1, EGFR protein preparation (epidermal …); test: antigen-binding ELISA on EGFR protein, cell supernatants (FIG. 8, Panel A)
[11] = molecular target: T1, EGFR protein preparation (epidermal …); test: antigen-binding ELISA on EGFR protein, COS supernatants (FIG. 6)
[12] = molecular target: T1, EGFR protein preparation (epidermal …); test: antigen-binding ELISA on EGFR protein, cell supernatants

binding to EGFR in antigen-binding ELISA (EGFR protein [1]): binds well to EGFR protein | binding potency (avidity) to EGFR [3]: similar | potency to compete with EGF for binding to EGFR [4]: the same
Molecule: Chimeric 425 antibody: mouse 425 VL and VH regions with human kappa and gamma-1 constant regions
competition with labelled mouse 425 antibody for binding to antigen (percent inhibition of binding, relative avidity) (EGFR protein [2]): just slightly less than that obtained when unlabelled mouse 425 antibody is competed with labelled mouse 425 antibody

binding potency (avidity) to EGFR [3]: similar
Molecule: MAb 425: murine monoclonal antibody raised against human A431 carcinoma cells, binds EGFR; hybridoma ATCC HB 9629 [reference compound]
potency to compete with EGF for binding to EGFR [4]: the same; also recorded: nearly identical | binding to EGFR epitope [5]: bind to a polypeptide epitope on the external domain of the human epidermal growth factor receptor (EGFR) | inhibition of EGF binding to EGFR ([5]; low and high affinity EGFR sites): inhibit the binding of epidermal growth factor (EGF) at both low and high affinity EGFR sites | tumor cell growth [6]: suppress tumor cell growth

binding result [7]: binds
B1: reshaped human 425 antibody with RVL a425 and RVH i425 (antibody, V domains shown)
VH: QVQLVQSGAEVKKPGASVKVSCKASGYTFTSHWMHWVRQAPGQGLEWVGEFNPSNGRTNYNEKFKSKATMTVDTSTNTAYMELSSLRSEDTAVYYCASRDYDYDGRYFDYWGQGTLVTVSS
VL: DIQMTQSPSSLSASVGDRVTITCSASSSVTYMYWYQQKPGKAPKLLIYDTSNLASGVPSRFSGSGSGTDFTFTISSLQPEDIATYYCQQWSSHIFTFGQGTKVEIK

binding result [8]: no binding
B2: reshaped human 425 antibody with RVL a425 and RVH a425 (antibody, V domains shown)
VH: QVQLVQSGAEVKKPGASVKVSCKASGYTFSSHWMHWVRQAPGQGLEWVGEFNPSNGRTNYNEKFKSRVTMTLDTSTNTAYMELSSLRSEDTAVYYCASRDYDYDGRYFDYWGQGTLVTVSS
VL: DIQMTQSPSSLSASVGDRVTITCSASSSVTYMYWYQQKPGKAPKLLIYDTSNLASGVPSRFSGSGSGTDFTFTISSLQPEDIATYYCQQWSSHIFTFGQGTKVEIK

binding result [9]: binds
B3: reshaped human 425 antibody with RVL a425 and RVH c425 (antibody, V domains shown)
VH: QVQLVQSGAEVKKPGASVKVSCKASGYTFSSHWMHWVRQAPGQGLEWVGEFNPSNGRTNYNEKFKSKATMTVDTSTNTAYMELSSLRSEDTAVYYCASRDYDYDGRYFDYWGQGTLVTVSS
VL: DIQMTQSPSSLSASVGDRVTITCSASSSVTYMYWYQQKPGKAPKLLIYDTSNLASGVPSRFSGSGSGTDFTFTISSLQPEDIATYYCQQWSSHIFTFGQGTKVEIK

binding result [10]: binds
B4: reshaped human 425 antibody with RVL b425 and RVH c425 (antibody, V domains shown)
VH: QVQLVQSGAEVKKPGASVKVSCKASGYTFSSHWMHWVRQAPGQGLEWVGEFNPSNGRTNYNEKFKSKATMTVDTSTNTAYMELSSLRSEDTAVYYCASRDYDYDGRYFDYWGQGTLVTVSS
VL: DIQMTQSPSSLSASVGDRVTITCSASSSVTYMYWYQQKPGKAPKLLIYDTSNLASGVPSRFSGSGSGTDYTFTISSLQPEDIATYYCQQWSSHIFTFGQGTKVEIK

binding result [8]: no binding
B5: antibody with chimeric 425 light chain and reshaped human 425 heavy chain version a (antibody, V domains shown)
VH: QVQLVQSGAEVKKPGASVKVSCKASGYTFSSHWMHWVRQAPGQGLEWVGEFNPSNGRTNYNEKFKSRVTMTLDTSTNTAYMELSSLRSEDTAVYYCASRDYDYDGRYFDYWGQGTLVTVSS
VL: QIVLTQSPAIMSASPGEKVTMTCSASSSVTYMYWYQQKPGSSPRLLIYDTSNLASGVPVRFSGSGSGTSYSLTISRMEAEDAATYYCQQWSSHIFTFGSGTKLEIK

binding result [9]: binds
B6: reshaped human 425 antibody with RVL a425 and RVH h425 (antibody, V domains shown)
VH: QVQLVQSGAEVKKPGASVKVSCKASGYTFTSHWMHWVRQAPGQGLEWVGEFNPSNGRTNYNEKFKSRVTMTVDTSTNTAYMELSSLRSEDTAVYYCASRDYDYDGRYFDYWGQGTLVTVSS
VL: DIQMTQSPSSLSASVGDRVTITCSASSSVTYMYWYQQKPGKAPKLLIYDTSNLASGVPSRFSGSGSGTDFTFTISSLQPEDIATYYCQQWSSHIFTFGQGTKVEIK

binding result [11]: no binding
B7: reshaped human 425 antibody with RVL a425 and RVH d425 (antibody, V domains shown)
VH: QVQLVQSGAEVKKPGASVKVSCKASGYTFSSHWMHWVRQAPGQGLEWIGEFNPSNGRTNYNEKFKSRVTMTLDTSTNTAYMELSSLRSEDTAVYYCASRDYDYDGRYFDYWGQGTLVTVSS
VL: DIQMTQSPSSLSASVGDRVTITCSASSSVTYMYWYQQKPGKAPKLLIYDTSNLASGVPSRFSGSGSGTDFTFTISSLQPEDIATYYCQQWSSHIFTFGQGTKVEIK

binding result [9]: binds
B8: reshaped human 425 antibody with RVL a425 and RVH f425 (antibody, V domains shown)
VH: QVQLVQSGAEVKKPGASVKVSCKASGYTFSSHWMHWVRQAPGQGLEWIGEFNPSNGRTNYNEKFKSKATMTVDTSTNTAYMELSSLRSEDTAVYYCASRDYDYDGRYFDYWGQGTLVTVSS
VL: DIQMTQSPSSLSASVGDRVTITCSASSSVTYMYWYQQKPGKAPKLLIYDTSNLASGVPSRFSGSGSGTDFTFTISSLQPEDIATYYCQQWSSHIFTFGQGTKVEIK

binding result [8]: binds
B9: antibody with reshaped human 425 light chain version a and chimeric 425 heavy chain (antibody, V domains shown)
VH: QVQLQQPGAELVKPGASVKLSCKASGYTFTSHWMHWVKQRAGQGLEWIGEFNPSNGRTNYNEKFKSKATLTVDKSSSTAYMQLSSLTSEDSAVYYCASRDYDYDGRYFDYWGQGTTLTVSS
VL: DIQMTQSPSSLSASVGDRVTITCSASSSVTYMYWYQQKPGKAPKLLIYDTSNLASGVPSRFSGSGSGTDFTFTISSLQPEDIATYYCQQWSSHIFTFGQGTKVEIK

binding result [12]: binds
B10: reshaped human 425 antibody with RVL b425 and RVH b425 (antibody, V domains shown)
VH: QVQLVQSGAEVKKPGASVKVSCKASGYTFSSHWMHWVRQAPGQGLEWVGEFNPSNGRTNYNEKFKSRVTMTVDTSTNTAYMELSSLRSEDTAVYYCASRDYDYDGRYFDYWGQGTLVTVSS
VL: DIQMTQSPSSLSASVGDRVTITCSASSSVTYMYWYQQKPGKAPKLLIYDTSNLASGVPSRFSGSGSGTDYTFTISSLQPEDIATYYCQQWSSHIFTFGQGTKVEIK

binding result [9]: binds
B11: reshaped human 425 antibody with RVL a425 and RVH b425 (antibody, V domains shown)
VH: QVQLVQSGAEVKKPGASVKVSCKASGYTFSSHWMHWVRQAPGQGLEWVGEFNPSNGRTNYNEKFKSRVTMTVDTSTNTAYMELSSLRSEDTAVYYCASRDYDYDGRYFDYWGQGTLVTVSS
VL: DIQMTQSPSSLSASVGDRVTITCSASSSVTYMYWYQQKPGKAPKLLIYDTSNLASGVPSRFSGSGSGTDFTFTISSLQPEDIATYYCQQWSSHIFTFGQGTKVEIK
